According to US20230051701A1 (Bristol-Myers Squibb, published 2023):
“And” between values parts separate entries of the source, which are not always exact repeats. Equal entries are not always repeated.

T1: human CD73 on cells (Calu6, NCI-H292, SK-MEL-24, human tumor cell lines, human B and T cells) (human, UniProt P21589 27-549)
T1 construct: Endogenous protein; also called endogenous CD73; cellular CD73
T1 sequence: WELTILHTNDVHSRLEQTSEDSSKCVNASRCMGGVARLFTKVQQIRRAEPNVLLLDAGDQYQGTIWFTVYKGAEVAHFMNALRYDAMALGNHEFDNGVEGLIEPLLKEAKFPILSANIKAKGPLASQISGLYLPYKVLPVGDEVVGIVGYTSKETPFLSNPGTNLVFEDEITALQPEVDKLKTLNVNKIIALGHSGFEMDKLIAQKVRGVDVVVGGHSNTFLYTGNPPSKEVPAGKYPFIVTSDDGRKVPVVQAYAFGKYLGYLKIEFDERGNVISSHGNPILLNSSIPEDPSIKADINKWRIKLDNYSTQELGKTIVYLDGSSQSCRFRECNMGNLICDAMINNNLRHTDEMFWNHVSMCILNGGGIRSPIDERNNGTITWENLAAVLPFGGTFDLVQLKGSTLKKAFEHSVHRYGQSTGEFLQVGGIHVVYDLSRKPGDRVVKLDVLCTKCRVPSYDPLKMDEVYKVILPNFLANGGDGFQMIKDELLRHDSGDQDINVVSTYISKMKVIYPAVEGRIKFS

T2: N-terminal domain of hCD73 (residues 26-336 of human CD73), His-tagged (human, UniProt P21589 26-336)
T2 construct: also called N-hCD73; N-hCD73-his
T2 sequence: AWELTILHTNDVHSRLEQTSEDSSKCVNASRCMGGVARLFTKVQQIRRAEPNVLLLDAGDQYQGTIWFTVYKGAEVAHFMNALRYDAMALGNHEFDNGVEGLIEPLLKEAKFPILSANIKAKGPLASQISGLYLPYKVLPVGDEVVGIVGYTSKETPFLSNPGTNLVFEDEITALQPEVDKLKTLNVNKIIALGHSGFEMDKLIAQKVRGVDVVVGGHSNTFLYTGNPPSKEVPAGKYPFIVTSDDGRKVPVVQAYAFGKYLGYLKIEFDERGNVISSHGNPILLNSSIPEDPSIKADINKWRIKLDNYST

T3: rhCD73 bound to his-tag magnet beads (human, UniProt P21589 27-549, limits assumed)
T3 sequence: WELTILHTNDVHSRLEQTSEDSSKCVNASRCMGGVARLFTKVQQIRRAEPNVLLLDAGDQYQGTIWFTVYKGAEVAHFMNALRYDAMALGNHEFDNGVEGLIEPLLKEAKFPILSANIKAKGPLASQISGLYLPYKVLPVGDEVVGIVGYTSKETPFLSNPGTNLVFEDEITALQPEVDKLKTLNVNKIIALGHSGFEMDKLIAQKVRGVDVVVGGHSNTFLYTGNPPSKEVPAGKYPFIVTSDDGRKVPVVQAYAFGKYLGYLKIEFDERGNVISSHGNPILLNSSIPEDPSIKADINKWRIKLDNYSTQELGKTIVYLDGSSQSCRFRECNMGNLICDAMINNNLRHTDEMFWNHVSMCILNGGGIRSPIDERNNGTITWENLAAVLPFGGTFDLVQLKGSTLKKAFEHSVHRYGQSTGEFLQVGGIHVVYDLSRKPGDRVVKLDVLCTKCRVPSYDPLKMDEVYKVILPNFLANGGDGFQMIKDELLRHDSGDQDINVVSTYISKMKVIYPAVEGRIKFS


Columns and labels:
[1] = target: T1, human CD73 on cells (Calu6, NCI-H292, …); test: binding titration on Calu6 cells, average of 2-6 experiments
Description: Titration binding curves were produced with CD73 antibodies on Calu6 (CD73 endogenous expressors; human pulmonary adenocarcinoma cell line), DMS114 (CD73 negative; human small cell lung cancer cell line), CHO-cynoCD73 (cynoCD73-transfected) and CHO-K1 (cynoCD73 negative), cells using Alexa Fluor® 647 Goat Anti-Human IgG (H+L) as a secondary antibody, Invitrogen Cat#A-21445, using the following method: 100000 cells were plated in 100 uL PBS+2% FBS per well and blocked for 20 min. Using a U-bottom 96-deep well plate, volumes of antibody and PBS+2% FBS were combined as dictated by Table 12 below.
An 8-point serial dilution was performed by diluting a sixth of the volume (90 uL) into 450 μL PBS+2% FBS. The cell plate was spun down for 5 minutes at 1500 rpm. 100 uL of diluted antibody was added per well of the plate. 100 uL PBS+2% FBS were added to all other wells. […] The plates were spun down at 1500 rpm for 5 min and washed in 200 uL PBS +2% FBS per well. The plates were washed again, resuspended in 200 uL 2% FBS in PBS per well and the samples were run.

[2] = target: T1, human CD73 on cells (Calu6, NCI-H292, …); test: cell-based or functional assay
[3] = target: T2, N-terminal domain of hCD73 (residues …); test: SPR, mAb captured on protein A
Description: For these experiments, protein A (Pierce) was immobilized to a density of 3000 — 4000 RU on flow cells 1-4 of a CM5 sensor chip (GE Healthcare) using standard ethyl(dimethylaminopropyl) carbodiimide (EDC)/N-hydroxysuccinimide (NHS) chemistry, with ethanolamine blocking, in a running buffer of 0.01 M HEPES pH 7.4, 0.15 M NaCl, 3 mM EDTA, 0.005% v/v tween 20. […] The running buffer for the kinetic experiments was 10 mM sodium phosphate, 130 mM sodium chloride, 0.05% tween 20, pH 7.1. The surfaces were regenerated after each cycle using two 30 s pulses of 10 mM glycine pH 1.5 at a flow rate of 30 μl/min. Sensogram data was double-referenced and then fitted to a 1:1 Langmuir model using Biacore T100 evaluation software v2.0.4, to determine the association rate constant (ka), the dissociation rate constant (kd), and the equilibrium dissociation constant (KD).

[4] = target: T1, human CD73 on cells (Calu6, NCI-H292, …); test: cell-based or functional assay; remark: listed apart in the source
[5] = target: T3, rhCD73 bound to his-tag magnet beads; test: cell-based or functional assay
[6] = target: T1, human CD73 on cells (Calu6, NCI-H292, …); test: cell-based or functional assay; remark: listed apart in the source

Binder | EC50 [1] [nM] | EC50 Calu6 inhibition [2] [nM] | EC50 H292 inhibition [2] [nM] | EC50 SKMEL24 inhibition [2] [nM] | Kd [3] | koff [3] | kon [3] | IC50 (nM), cAMP HTRF assay, Calu-6 with HEK293/A2AR cells [4] [nM] | Ymax, cAMP HTRF assay [4] | EC50 (nM), inhibition of bead-bound rhCD73 enzymatic activity [5] [nM] | Ymax, CD73 internalization, Calu6, 2 h [6] | EC50 (nM), CD73 internalization, Calu6, 2 h [6] [nM]
5F8 (antibody, human IgG1, kappa, V domains shown, IgG1za from hybridoma; predominant light chain VK1, VK2 also expressed; also called 5F8-1) VH: EVQLVESGGGLVQPGGSLRLSCAASGFTFSSYWMHWVRQAPGKGLVWVSRIISDGSSTGYADSVKGRFTISRDNAKNTLYLQMNSLRAEDTAVYYCAREFSSGWYFDYWGQGTLVTVSS VL: AIQLTQSPSSLSASVGDRVTITCRASQGISSALAWYQQKPGKAPKLLIYDASSLESGVPSRFSGSGSGTDFTLTISSLQPEDFATYYCQQFSSYPRTFGQGTKVEIKR | 11.7 | 8.1 | 13.5 | 110 | 41 nM | 0.006 s⁻¹ | 150000 M⁻¹ s⁻¹ | 13.2 | 80 % of 100 nM 11F11 | 5.76 |  | 
4C3 (antibody, human IgG1, kappa, V domains shown, IgG1za from hybridoma; also called 4C3-1) VH: EVQLVESGGGLVQPGRSLRLSCAASGFTFDDYAMHWVRQAPGKGLEWVSGISWKSGSIGYADSVKGRFTISRDNAKNSLYLQMNSLRAEDTALYYCVKGYYVILTGLDYWGQGTLVTVSS VL: not shown |  |  |  |  |  |  |  |  | 80 % of 100 nM 11F11 |  |  | 
10D2 (antibody, human IgG4, kappa, V domains shown, also called 10D2-2) VH: QVQLVESGGGVVQPGRSLRLSCAASGFTFSNYGLHWVRQAPGKGLEWVAVIRYDGSNKYYADSVKGRFTISRDNSKNTLYLQMSSLRAEDTAVYYCARGGSSWYPDGLDVWGQGTTVTVSS VL: DIQMTQSPSSLSASVGDRVTITCRASQGISSWLAWYQQKPEKAPKSLIYAASSLQSGVPSRFSGSGSGTDFTLTISSLQPEDFATYYCQQYNSYPLTFGGGTKVEIKR |  |  |  |  | 1.6 nM | 0.00095 s⁻¹ | 610000 M⁻¹ s⁻¹ |  |  | 6.94 | 29 % of 100 nM 11F11 | 
7A11 (antibody, human IgG1, kappa, V domains shown, IgG1za from hybridoma; also called 7A11-1) VH: EVQLVESGGGLVQTGRSLRLSCAASGFTFDDYAMHWVRQAPGKGLEWVSDISWNSDIIGYADSVKGRFTISRDNAKNSLYLQMNSLRAEDTALYYCAKDIYGSGSSFFDYWGQGILVTVSS VL: DIQMTQSPSSLSASVGDRVTITCRASQYISSWLAWYQQKPEKAPKSLIYAASSLQSGVPSRFSGSGSGTDFTLTISSLQPEDFATYYCQQYHSYPPTFGQGTRLEIKR | 0.35 | 0.95 | 1.31 | 3.72 | 0.43 nM | 0.00038 s⁻¹ | 880000 M⁻¹ s⁻¹ | 0.95 | 45 % of 100 nM 11F11 | 2.86 | 50 % of 100 nM 11F11 | 2.59
11A6 (antibody, human IgG1, kappa, V domains shown, IgG1za from hybridoma; also called 11A6-1) VH: EVQLVESGGNLVQPGRSLRLSCAASGFTFDDYAMHWVRQAPGKGLEWVSGISWNNNDIGYADSVKGRFIISRDNAKNSLYLQMNSLRPEDTALYYCVKGYYVILTGLDYWGQGTPVTVSS VL: DIQMTQSPSSLSASVGDRVTITCRASQGISSWLAWYQQKPEKAPKSLIYAASSLQSGVPSRFSGSGSGTDFTLTISSLQPEDFATYYCQQYNSYPLTFGGGTKVEIKR | 1.93 | 2.21 |  |  | 140 nM | 0.0076 s⁻¹ | 55000 M⁻¹ s⁻¹ | 4.87 | 84 % of 100 nM 11F11 | 3.12 |  | 
24H2 (antibody, human IgG4, kappa, V domains shown, also called 24H2-1) VH: QVQLVESGGGVVQPGRSLRLSCAASGFTFSNYGMHWVRQAPGKGLEWVAVIWYDGGNKYYADSVKGRFTISRDNSKNTLFLQMNSLRAEDTAVYYCARGGSSWYPDAFDIWGQGTMVTVSS VL: DIQMTQSPSSLSASVGDRVTITCRASQGISSWLAWYQQKPEKAPKSLIYAASSLQSGVPSRFSGSGSGTDFTLTISSLQPEDFATYYCQQYNSYPLTFGGGTKVEIKR |  |  |  |  | 14 nM | 0.0032 s⁻¹ | 230000 M⁻¹ s⁻¹ |  |  | 4.18 | 51 % of 100 nM 11F11 | 8.2
4D4 (antibody, human IgG2, kappa, IgG2 from hybridoma; also called 4D4-1) heavy: QVQLVESGGGVVQPGRSLRLSCAASGFTFSNYGMHWVRQAPGKGLEWVAVIWYDESNKYYADSVKGRFTISRDNSKNTLFLQMNSLRAEDTAVYYCARGYNSRWYPDAFDIWGQGTMVTVSSASTKGPSVFPLAPCSRSTSESTAALGCLVKDYFPEPVTVSWNSGALTSGVHTFPAVLQSSGLYSLSSVVTVPSSNFGTQTYTCNVDHKPSNTKVDKTVERKCCVECPPCPAPPVAGPSVFLFPPKPKDTLMISRTPEVTCVVVDVSHEDPEVQFNWYVDGVEVHNAKTKPREEQFNSTFRVVSVLTVVHQDWLNGKEYKCKVSNKGLPAPIEKTISKTKGQPREPQVYTLPPSREEMTKNQVSLTCLVKGFYPSDIAVEWESNGQPENNYKTTPPMLDSDGSFFLYSKLTVDKSRWQQGNVFSCSVMHEALHNHYTQKSLSLSPGK light: not shown | 0.82 |  |  |  | 9.4 nM and 6.2 nM | 0.00077 s⁻¹ and 0.00049 s⁻¹ | 82000 M⁻¹ s⁻¹ and 79000 M⁻¹ s⁻¹ |  |  | 5.31 | 104 % of 100 nM 11F11 | 0.38
